What was measured:
[1] = molecular target: His-AnaRneN (N-terminal catalytic domain of Anabaena RNase E) (Anabaena PCC 7120); assay: ITC
[2] = molecular target: AnaRne-GFP (RNase E tagged with GFP at the C-terminus, in situ) (Anabaena PCC 7120) (UniProt Q8YP69); assay: FRET or BRET
Sequence of UniProt Q8YP69 (Q8YP69 whole entry): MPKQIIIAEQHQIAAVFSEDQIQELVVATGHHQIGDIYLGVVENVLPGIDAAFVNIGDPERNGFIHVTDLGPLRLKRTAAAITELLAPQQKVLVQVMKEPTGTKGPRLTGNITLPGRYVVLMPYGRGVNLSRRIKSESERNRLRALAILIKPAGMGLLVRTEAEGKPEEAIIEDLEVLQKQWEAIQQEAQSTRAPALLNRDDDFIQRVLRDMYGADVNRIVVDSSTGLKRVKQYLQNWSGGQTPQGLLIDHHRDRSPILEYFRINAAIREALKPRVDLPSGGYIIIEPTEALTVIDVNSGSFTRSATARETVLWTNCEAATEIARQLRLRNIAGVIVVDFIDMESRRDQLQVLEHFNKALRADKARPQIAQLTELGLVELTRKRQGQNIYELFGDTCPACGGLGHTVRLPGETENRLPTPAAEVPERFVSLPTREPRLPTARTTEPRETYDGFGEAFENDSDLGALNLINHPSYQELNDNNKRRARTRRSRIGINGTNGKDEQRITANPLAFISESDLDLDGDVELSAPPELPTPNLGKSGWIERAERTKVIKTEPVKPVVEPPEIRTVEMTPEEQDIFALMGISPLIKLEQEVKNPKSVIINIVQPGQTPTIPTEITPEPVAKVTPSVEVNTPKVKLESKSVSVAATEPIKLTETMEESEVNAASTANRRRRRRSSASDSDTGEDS

Kd [1] | stoichiometry N [1] | FRET efficiency [2] | Substance
2770 nM | 1 |  | Alr1240-Strep (Alr1240 with a C-terminal Strep tag fusion) (enzyme)
 |  | 0.7 | AnaRnb-BFP (RNase II tagged with BFP at the C-terminus, in situ) (enzyme)

Source: PMC7144899
